Source: a protein production outcome set (Wang et al. 2014)

Assay: label from the status in PepcDB records

| Sequence | protein production |
| --- | --- |
| MTAIAPVITIDGPSGAGKGTLCKAMAEALQWHLLDSGAIYRVLALAALHHHVDVASEDALVPLASHLDVRFVSTNGNLEVILEGEDVSGEIRTQEVANAASQVAAFPRVREALLRRQRAFRELPGLIADGRDMGTVVFPDAPVKIFLDASSEERAHRRMLQLQEKGFSVNFERLLAEIKERDDRDRNRAVAPLVPAADALVLDSTTLSIEQVIEKALQYARQKLALA | failed |
| MTAIPLTFYLGLAALLFSIGLYGVMTHKSGIRMIMCIELMLNSANLNLVAFSSYTDTLNGQVFAIFSIALAAAEAAVGFAIFMAIYRMHDKINLDELNILRW | failed |
| MTAIRFDHVDVIFGTHTKEALKLLDQGLGRAEILKRTGQVLGVEDACLDVNRGEICVLMGLSGSGKSSLLRCINGLNKVSRGKLLIEHEGSQVDIANCSPATLKAMRTKRIAMVFQKFALMPWLTVAENVGFGLEMQGRPAAERKKLIDEKLELVGLSQWRDKRPDSLSGGMQQRVGLARALAMDGDILLMDEPFSALDPLIRQQLQDELLVLQRQLHKTIVFVSHDLDEALKIGTRIAIMKDGRIIQHGKPEEIVLSPADDYVRTFVAHTNPLNVLCGQSLMRGLDQCIRQNDEICFDQGRDCWIGLSEGDVLKGARQGSNVIDLQRWRQGDPVEKLRREPTLVDVSIRMRDALQIRYQTGHKLVLQEQDRVVGVLGDSELYHALLGKN | failed |
| MTALPLSAVTVVSVCYNSDRLIRDLVTAIPDETPIILVDNGHTNTFADLPPHRNVIIVKLDHNLGFGRGCNAGADVAQTPWILFLNPDARLNPGAIEGLLQAAAQYPSAIAFNPRIYNEDGSPYFKRRSWLLPRQHYMKKGWPSADAVVPVLSGAALFVSKKSFDYIGGFDPSIFMYHEDDDLSLRLSALGELRFVRNSTVVHFAGYSSGRSPEIARFKAYHMAQSKIYAGQKHHRPFAKTSTLLQGCLLLLSPHVFFSARRRAKALGFLHGALAKIWSELLNAASTSSQKKTLEHHHHHH | not failed |
| MTAPTLSRAAMEKVIRTYYDGCNEADEAKMIACFVPEAVHYFPAGMYGGAFRGAAQIAHRWRTAVETLGSYWTIDALVIDAETAEAAIEWTHFKTNQDKVLRGAECVEFDRASGLIREIRAFYASPQAEGIARLELGDFDYAGRGYRVTSPRKPA | not failed |
| MTASTAPQTEPHKTSAPESGPVMLLVATIKGAWFLASDPARRTWELRGPVFLGHTIHHIVQDPREPERMLMAARTGHLGPTVFRSDDGGGNWTEATRPPAFNKAPEGETGRVVDHVFWLTPGHASEPGTWYAGTSPQGLFRSTDHGASWEPVAGFNDHPMRRAWTGGEQDGTPDGPKMHSILVDPRDPKHLYIGMSSGGVFESTDAGTDWKPLNRGCAANFLPDPNVEFGHDPHCVVQHPAAPDILYQQNHCGIYRMDRREGVWKRIGDAMPREVGDIGFPIVVHQRDPRTVWVFPMDGSDVWPRVSPGGKPAVYVTRDAGESWQRQDRGLPTDQAWLTVKRQAMTADAHAPVGVYFGTTGGEIWASADEGEHWQCIASHLPHIYAVQSARPV | not failed |
| MTATIPPLTPTVTPSNPDRPIADLKLQDIIKTLPKECFEKKASKAWASVLITLGAIAVGYLGIIYLPWYCLPITWIWTGTALTGAFVVGHDCGHRSFAKKRWVNDLVGHIAFAPLIYPFHSWRLLHDHHHLHTNKIEVDNAWDPWSVEAFQASPAIVRLFYRAIRGPFWWTGSIFHWSLMHFKLSNFAQRDRNKVKLSIAVVFLFAAIAFPALIITTGVWGFVKFWLMPWLVYHFWMSTFTIVHHTIPEIRFRPAADWSAAEAQLNGTVHCDYPRWVEVLCHDINVHIPHHLSVAIPSYNLRLAHGSLKENWGPFLYERTFNWQLMQQISGQCHLYDPEHGYRTFGSLKKV | failed |
| MTCHNAAGALEPTGSAAKTLPDGLHALMTAEELAFFARFGRLREVSAGQSLFERGAVGTQMYIVVSGQIDLDFGEDLMLKHLGPGEFFGELGLLIGDHARSAGASASTDSRLIELAHDDFQRLVDQDPSMVAHFLRRSIVRVVNNEQLLIRQLRRRNHDLEAALDNLYVTSHQLNHTEELSRTDELTGLHNRRGLALHLQECRRAGHVPGVGLILIDCDRFKRINDEFGHLAGDRVLQNVAHALRSVIAEGDLACRLGGDEFCVLVAQGTSELVHHIGECIVRAVEARLCNGQGEQGCSVSVGSCMIDADAAWNDWYTLADSALYEAKRQGGNVLCMQETLALDQPPASGHR | failed |
| MTCRPALSDSHPPEPGTPSSPSFGVCGDRPLLRERGQHEVFCGLAGIIWLHRKIQDAFFLIIGSRTCAHLMQSAAGVMIFAEPRFATAVLEEQDLAGLADAQDEIDRVVARLLERRPDIRLLFLVGSCPSEVIKIDLQRAALRLSKVHGARTRVVSYSGSGLETTFTQGEDACLAALVPDLPSAAADEAPDLLVVGTLPDVVEDQFGRLFAEMGIARTAFLPPRRSTALPAIGPKTRFLLAQPFLGDTARCLEARGARRLAAPFPFGVEGTTGWLAAAAQAFGVDDLTFRRVTAPGRERAARALERQRATLEGKRVFFFPESQLEIPLARFLVRELGMEAIEIGTPYLHRAHLAEELALLPATALLSEGQDVDRQLDRCRAARPDLVVCGLGLANPLEAEGITTKWSIELVFSPIHGYEQAGDLAELFARPLLRRALLKV | failed |
| MTDAHTVCPKFESAFQLLGKRWTGLIINVLLTGPKRFKQVAAEIPQMSDRVLAERLKELEEMDICLRQVYPETPVRIEYELTEKGKALQEVMLEVQCWADKWVEVPN | failed |
| MTDDKKIRAAIVGYGNIGRYALQALREAPDFEIAGIVRRNPAEVPFELQPFRVVSDIEQLESVDVALVCSPSREVERTALEILKKGICTADSFDIHDGILALRRSLGDAAGKSGAAAVIASGWDPGSDSVVRTLMQAIVPKGITYTNFGPGMSMGHTVAVKAIDGVKAALSMTIPLGTGVHRRMVYVELLPGHNLEEVSAAIKADEYFVHDETHVIQVDEVDALIDMGHGVRMVRKGVSGSTQNQRMSFDMEINNPALTGQVLVCAARAAMRQQPGAYTLQEIPVIDLLPGDREQWIGKLC | not failed |
| MTDFSRTFSGTPSAVLPTANRFFRPPLPSAHVARPRLCRRLRDGLDGRLLLIAAPAGFGKSSLAIEFCESLDPRWQSLWLGLSSRESDPGRFLERLLDGLRQYHPTLGEEALGLLKMRQRHQPFAFETWLDDLLDELAPCLDPQRPLLLVLDDYHLAQGAVLDRCLQFLLNHLPEGLVLLVTSRQRPDWHLARLRLSRQLLELSEQDLRLTAEESGALMAASGLELDEDALDALLERSEGWVAGLRLWLLARGDPEEQVSPGVHGADELIRDYLLEEVIERQPPEVQAFLAQTARFERFCAELCDTVREAGDSAAILDHLQQHQVFLVPLDENGQWFRYHHLFSDLLLARPLPDFGPSAGSLHLRACGWFSRHGLLDQAVEQALRAGQPDVAASLVQNLSEEQLLAEQNIATLLRWKMDLPDSLLASTPRLILLYGWALALACQLDAAEELAGQLARFLPAPDESAQRDLLAQWQALSGVIARGRGDIDKAEAHCREALQDLAGERYGTRLQCLSTLSNLAVTRGDFWQARNYNRDALEFAQRYGNPLFEALVHYDRARVLQARGEVARAEEEVRQGLERLQHLPAQRRYAVRGRLLLYRGYLRSLALQPDEARKWIKQGIEETRSCRDVSLVIGYCVLASLEGRLGNYAAAFARLGDVERLMHAWDIPPIYYLAAITLIKCELWLAQGQTELAGVWLQRLGGTYGGQAATPPECSPLLPLHVELLQAGLERREGRPEEAARRLDRLARSTRENGALLPARLALGQLAALHLEQGREREALATLQQAMEGAVGGALLPLHELLVQQPEWLREQLQRFPACPGAQRMRALLPEPPAEPAGSAGEVLSGRELAVLELIAQGLSNQEISERLFISLHTVKSHARHINDKLGVERRTQAVARAKHMGLLR | failed |
| MTDGTTDGLNKAAVFICHCSGNISEHVDINTVKKTLKAEGFSVYDYEYLCSSQGQALIKKKISEGHVDRVVIGSCTPSKHGTLFKKCIQETGLNRAGLEIANLREQCAWVHPDREGATEKALSLLKAKLKRLENIEPLEDIKVDIAQQVLVIGGGIAGITAALNLADNGVPTFLVEKDSSIGGQMAKIGKIFSPDKLAEECAMCSLSPLMNEVAAHPRITLLTWTEVEKLSGSAGNFTVRLKKKPRYVKDNCIACGKCSRVCPVSVEDEFNCGYMDKKAISLRFSQSVPKVYFIDPDSCLRLKGENCGKCAEACKTGAIDFSQKEEIIELNVGAVVVATGFEEYDVSQKPQYGYGIFENVLTQMELARVLGINGPTKGELLRISDFSKASSDPAPSTCDSRCESSSDHPFEVETPERIVMIQCVGSRDEKEGGNRYCSRYCCMAALKHASLIKKRYPKTEITICYIDMRAFGFYENYYRAVQETGVNFVRGRPAEVIEKPDKSLVVRVEDTLSQKIKEIPADMVVLSAAMVPSPGTKKIASVLNLSQDESGFIKERHSKLKPVDCSLDGIFVCGTAQSPKDVTDTIAQAGLAAVRARAFITDSPKVLDNEIAAINQLLCTRCGECLKCPFDALSINENGRVVLDPLICTGCGYCTELCREGAVQIAGFTKSQLKAELEGVLEEGDVLGFVNSGISSLTCDNIGNSVLTYPSSVKLIKVPTCLIVDRDLVLHAFRHGASSVLFVEDPPDSPRAEVIYPLTVSHFEKLKEELGDSGKRIHFKKAYVPNIKGLAGTFTSLAREGEMIK | failed |
| MTDKKSENKTIQGASSLSLENRKILSITGVNEVINFDEEKISLKTDLGPLLIKGSELKMNKLDVQNGEVIIGGFISNIDYLNKKNKRKRNINLLSKIFKLEHHHHHH | not failed |
| MTDKTSLSYKDAGVDIDAGNALVGRIKGVVKKTRRPEVMGGLGGFGALCALPQKYREPVLVSGTDGVGTKLRLAMDLKRHDTIGIDLVAMCVNDLVVQGAEPLFFLDYYATGKLDVDTASAVISGIAEGCLQSGCSLVGGETAEMPGMYHGEDYDVAGFCVGVVEKSEIIDGSKVSDGDVLIALGSSGPHSNGYSLVRKILEVSGCDPQTTELDGKPLADHLLAPTRIYVKSVLELIEKVDVHAIAHLTGGGFWENIPRVLPDNTQAVIDESSWQWPEVFNWLQTAGNVEHHEMYRTFNCGVGMIIALPAPEVDKALALLNANGENAWKIGIIKASDSEQRVVIE | not failed |
| MTDMNPDIEKDQTSDEVTVETTSVFRADFLSELDAPAQAGTESAVSGVEGLPPGSALLVVKRGPNAGSRFLLDQAITSAGRHPDSDIFLDDVTVSRRHAEFRLENNEFNVVDVGSLNGTYVNREPVDSAVLANGDEVQIGKFRLVFLTGPKQGEDDGSTGGP | failed |
| MTDPLQRPRRKDPLRRTTLGHVPPRLRSRAAMEMATHAAQGRFVLQTCESCDRATYPPRDRCPNCWGELVWREQDAGGQVAAETTIRHSTDTYFRNHMPWRIGTVRLDAGPTAIVHLHGEAGVGDRVNMVLKLDRGGNPALFAMPRGDVPNMQDDPQFRSFTADPKHRRVLVTDGRTDTGQAIARALLDAGAAKVFVGDCAPLMRFAGKQQLAALDGAELVPLDVTDTHSVGNLAAQLGGRIDIVINTAGQVREGGVAFGAKLSDLQAGLDTGVVGLMRLAQAFGPALGARSDDGVNSAAAFLDVVPVSGLSGQSGYSGTAASAAARLSLLSGFRGEMQKAGIRVMSVLTGPVDDAWHQRLPQPKTAPSHLARTVVAALRDGQEISCAGDVAKDLFARWRADPLLTMREENR | failed |
| MTDPSQMQAEELLSFLEEGGTLKMLHDVSADTIEHIYAVGYNFFQSGKIEQAAKVFQLLSMLDHYQARFFIGLGAARQELGEYLQAIDAYSYAALVDINDPRPPFHSAECHLKLEQLTEAESGFYSAKEMSAGKSQYADLHQRAGIMLEAVRNKRSNLEHHHHHH | not failed |
| MTDQIREHLVSMLVHNKPGVMRKVANLFARRGFNISSITVGESETPGLSRLVIMVKGDDKTIEQIEKQAYKLVEVVKVTPIDPLPENRVEREMALIKVRFDEDKQEIFQLVEIFRGKIIDVSREGAIIEITGARSKVEAFINLLPQKQVEEIARTGIVAMNRWNVKEGEGF | not failed |
| MTDQSVRIIEAALRLYMKKPPHEVSIEEIAREAKVSKSLIFYHFESKQKLLEEAVMHAFRKMMEEFNPRSVEEVVDYGIGFIAERREFIEFMMYALSQVRIEELERMFGEALEKVASLFEGCRHPRETAIALMAMLDGLSIYSLYFDLGKLEKYREIAMEFVESRRVRA | not failed |
